Assay results: doi:10.1101/373563 (bioRxiv, 2018)

Legend:
[1] = biological target: Facklamia ignava NrdB∆Grx (lacking the Grx domain) (Facklamia ignava); test: GEMMA
SEC [2] = biological target: the molecule itself; test: SEC
SEC [3] = biological target: the molecule itself; test: SEC; remark: listed apart in the source
GEMMA = biological target: the molecule itself; test: GEMMA

## Facklamia ignava NrdB∆Grx (lacking the Grx domain) (domain or fragment)
[1]
  stoichiometry N: 4

B1: Facklamia ignava NrdA (natural protein, UniProt K1MC37 1-567, looked up)
chain: MTAQLKNREYEPFYWLTEDSQTFLERGYLREGQDAHSRLREIADRAEEILGIDGFSDKFYTYLGRGYYSLSTPVWTNFGSNRGFPISCFGSTPDDNMASILYTAAEIGMMSKYGGGTSGFFGHLRPRGAAITNNGYSSGAVHFMKLFEQMTDTVSQGSSRRGRFAPYLPIDHPDIDEFLEIGVEGNDIQDLNHAVTVPDDWMREMIQGDREKRATWAKVIQRRVEMGYPYILFTDTINNNKPEWYHDYPITHSNLCSEIMLPDNDHWSFVCNLSSMNVLHYNEWKDTDAVETMIYFLDAVMSEFIEKLEKLRDSDQFEYREAFHFMERAYNFAVENRALGLGVLGWHSLLQSNLIAFESEEASYLNEEIHRTIQERAEKASCELAELFGEPLILKGTGRRNTTTMAIAPTTSSAFIIGQVSQSIEPLFSNYYVKDMSKIKTTIRNRYLVELLEEKGRNTPDVWESIKNHDGSVLHLDFLSDHEKNVFKTFAEINQYEIINQAAVRQRYIDQSQSLNIMINPATTTAKEMNQLYLYAWESGIKSLYYQHSTSAAQAFYRSSVCLACEA
SEC [2]
  stoichiometry N: 2

B2: Facklamia ignava NrdB (Grx::ATP-cone::NrdB fusion protein), wild type (natural protein, UniProt K1LAT4 1-496, looked up)
chain: MTQVQVYSKKVCPWCTRLKDWMDKNNIDYEEIDIEVHPEAREYLHSLGLKTVPQVFIDGVHRPHEPLYSNLLHYIHGTSKIPQHVTKRNGDRVDFDPTKIEIAIQKANNETHELNDMEINTVTQKVVEKIDIDPIHVEEIQDLVETELMLQSFPRTAKAYILYRAEQTKARQRDIFKPRKNLKPYEYPELESYKEAIQHSYWLHTEYNYTSDIQDYKINVEPHERTAIRNAMLAISQVEVSVKTFWAKLYDRLPKPELANVGMTFAESEVRHSDAYSHLLELLGLNEIFEEIEQIPALNQRVDYLNSHIKYSQTGSNRDYTISILLFSAFIEHISLFSQFLIIMAFNKQKNLFSGISNVIEATSKEEQLHGEFGIDLINTIKAENPDWFDDELKEEIYTLVKQAYESEKDVLDWIYEDGEIDFMPTQTVLEFIKNRLNNSLEAIGLERIFETDLAEVEKTLWFDEEIVSTKHVDFFAKRSVNYTKRSQSMTADDLF
SEC [3]
  stoichiometry N: 4
GEMMA
  stoichiometry N: 2
